Series [1] concerns HeLa Kyoto. The series is described as follows: thermal stability score vs G1/S (z-score of summed log2 fold changes over temperatures); higher = more thermally stable than in G1/S.
Series [2] relates to HeLa Kyoto. The series is described as follows: solubility in G1/S (NP-40 vs SDS abundance) (log2 ratio); higher = more soluble. Conditions: cell cycle stage: G1/S.
For series [3], the system named is HeLa Kyoto. The series is described as follows: solubility change mitosis vs G1/S (difference of NP-40 vs SDS log2 ratios) (log2 ratio difference); higher = more soluble in mitosis.
The subject of series [4] is HeLa Kyoto. The series is described as follows: melting temperature (median over replicates), in situ; higher = more thermally stable.
[5] abbreviates: cell cycle stage: early G1 (4.5 h after nocodazole release).
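Wherever melting temperature (median over replicates), in situ is given: HeLa Kyoto cells synchronized by double thymidine or nocodazole block, proteins quantified by TMT10plex mass spectrometry, three independent biological replicates.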
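Wherever solubility change mitosis vs G1/S (difference of NP-40 vs SDS log2 ratios) is given: synchronized HeLa Kyoto cells (double thymidine block for G1/S, nocodazole release for mitosis), protein amounts in NP-40 versus SDS lysates quantified by mass spectrometry, three biological replicates.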
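Wherever solubility in G1/S (NP-40 vs SDS abundance) is given: HeLa Kyoto cells arrested at G1/S by double thymidine block, proteins quantified by TMT10plex mass spectrometry in mild NP-40 versus SDS extracts, three biological replicates.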
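Wherever thermal stability score vs G1/S (z-score of summed log2 fold changes over temperatures) is given: synchronized HeLa Kyoto cells, proteins quantified by TMT10plex mass spectrometry, three biological replicates, mitosis taken 0.5 h after nocodazole release, G1/S directly after double thymidine block.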

As to KPNA6, the thermal stability score worked out at 1.85 in series [1] (setting [5]) and 4.59 in series [1] (cell cycle stage: mitosis). In addition, the “solubility in G1/S (log2)” value in series [2] came out at 0.0416. Also, in series [3], the “solubility change mitosis (log2)” value was -0.0516. The melting temperature turned out to be 47.6 °C in series [4] (cell cycle stage: G1/S) and 48.8 °C in series [4] (cell cycle stage: mitosis).

As for LAMA1, the thermal stability score in series [1] (setting [5]) was 5.02; in series [1] (cell cycle stage: mitosis), 10. The “solubility in G1/S (log2)” value in series [2] was -0.219. Besides, the “solubility change mitosis (log2)” value in series [3] was 0.051. Further, the results for the melting temperature in series [4] (cell cycle stage: G1/S) and in series [4] (cell cycle stage: mitosis) were 51.7 °C and 52.9 °C, respectively.

As for LAMB2, the thermal stability score in series [1] (setting [5]) was found to be 2.43; in series [1] (cell cycle stage: mitosis), 3.75. Besides, the “solubility in G1/S (log2)” value in series [2] was 0.034. In addition, the “solubility change mitosis (log2)” value in series [3] was -0.116. The melting temperature was 53 °C in series [4] (cell cycle stage: G1/S) and 53.9 °C in series [4] (cell cycle stage: mitosis).

As for LRP6, the thermal stability score was -4.02 in series [1] (setting [5]) and -2.07 in series [1] (cell cycle stage: mitosis). Moreover, the “solubility in G1/S (log2)” value in series [2] stood at 0.027. Also, the “solubility change mitosis (log2)” value in series [3] worked out at 0.112. For the same substance, the figures for the melting temperature in series [4] (cell cycle stage: G1/S) and in series [4] (cell cycle stage: mitosis) were 52.7 °C and 53.1 °C, respectively.

For the substance LTN1, the thermal stability score in series [1] (setting [5]) worked out at 0.696; in series [1] (cell cycle stage: mitosis) it was 1.04. Besides, the “solubility in G1/S (log2)” value in series [2] was -0.347. For the same substance, the “solubility change mitosis (log2)” value in series [3] is -0.0806. In addition, the melting temperature in series [4] (cell cycle stage: G1/S) worked out at 50.1 °C; in series [4] (cell cycle stage: mitosis), 48.8 °C.

With “MAAAAAAAVAGVGRGGGGAEPRQERSRARGWAGVERSEGRRMEPGEELEEEGSPGGREDGFTAEHLAAEAMAADMDPWLVFDARTTPATELDAWLAKYPPSQVTRYGDPGSPNSEPVGWIAVYGQGYSPNSGDVQGLQAAWEALQTSGRPITPGTLRQLAITHHVLSGKWLMHLAPGFKLDHAWAGIARAVVEGQLQVAKVSPRAKEGGRQVICVYTDDFTDRLGVLEADSAIRAAGIKCLLTYKPDVYTYLGIYRANRWHLCPTLYESRFQLGGSARGSRVLDRANNVELT [C11ORF68]”, the thermal stability score in series [1] (setting [5]) was 0.634; in series [1] (cell cycle stage: mitosis) it was -0.663. In addition, in series [2], the “solubility in G1/S (log2)” value came to 0.585. For the same substance, the “solubility change mitosis (log2)” value in series [3] is -0.0653. Further, the melting temperature in series [4] (cell cycle stage: G1/S) came out at 51.6 °C; in series [4] (cell cycle stage: mitosis), 51.9 °C.

In the case of “MAAAAASHLNLDALREVLECPICMESFTEEQLRPKLLHCGHTICRQCLEKLLASSINGVRCPFCSKITRITSLTQLTDNLTVLKIIDTAGLSEAVGLLMCRSCGRRLPRQFCRSCGLVLCEPCREADHQPPGHCTLPVKEAAEERRRDFGEKLTRLRELMGELQRRKAALEGVSKDLQARYKAVLQEYGHEERRVQDELARSRKFFTGSLAEVEKSNSQVVEEQSYLLNIAEVQAVSRCDYFLAKIKQADVALLEETADEEEPELTASLPRELTLQDVELLKVGHVGPLQIGQAVKKPRTVNVEDSWAMEATASAASTSVTFREMDMSPEEVVASPRASPAKQRGPEAASNIQQCLFLKKMGAKGSTPGMFNLPVSLYVTSQGEVLVADRGNYRIQVFTRKGFLKEIRRSPSGIDSFVLSFLGADLPNLTPLSVAMNCQGLIGVTDSYDNSLKVYTLDGHCVACHRSQLSKPWGITALPSGQFVVTDVEGGKLWCFTVDRGSGVVKYSCLCSAVRPKFVTCDAEGTVYFTQGLGLNLENRQNEHHLEGGFSIGSVGPDGQLGRQISHFFSENEDFRCIAGMCVDARGDLIVADSSRKEILHFPKGGGYSVLIREGLTCPVGIALTPKGQLLVLDCWDHCIKIYSYHLRRYSTP [TRIM32]”, the thermal stability score was found to be 0.931 in series [1] (setting [5]) and 0.623 in series [1] (cell cycle stage: mitosis). Further, the “solubility in G1/S (log2)” value in series [2] is -0.286. Moreover, in series [3], the “solubility change mitosis (log2)” value worked out at 0.0329. Besides, the melting temperature in series [4] (cell cycle stage: G1/S) stood at 51.8 °C; in series [4] (cell cycle stage: mitosis) it was 52.2 °C.

Turning to “MAAAAAVEAAAPMGALWGLVHDFVVGQQEGPADQVAADVKSGNYTVLQVVEALGSSLENPEPRTRARAIQLLSQVLLHCHTLLLEKEVVHLILFYENRLKDHHLVIPSVLQGLKALSLCVALPPGLAVSVLKAIFQEVHVQSLPQVDRHTVYNIITNFMRTREEELKSLGADFTFGFIQVMDGEKDPRNLLVAFRIVHDLISRDYSLGPFVEELFEVTSCYFPIDFTPPPNDPHGIQREDLILSLRAVLASTPRFAEFLLPLLIEKVDSEVLSAKLDSLQTLNACCAVYGQKELKDFLPSLWASIRREVFQTASERVEAEGLAALHSLTACLSRSVLRADAEDLLDSFLSNILQDCRHHLCEPDMKLVWPSAKLLQAAAGASARACDSVTSNVLPLLLEQFHKHSQSSQRRTILEMLLGFLKLQQKWSYEDKDQRPLNGFKDQLCSLVFMALTDPSTQLQLVGIRTLTVLGAQPDLLSYEDLELAVGHLYRLSFLKEDSQSCRVAALEASGTLAALYPVAFSSHLVPKLAEELRVGESNLTNGDEPTQCSRHLCCLQALSAVSTHPSIVKETLPLLLQHLWQVNRGNMVAQSSDVIAVCQSLRQMAEKCQQDPESCWYFHQTAIPCLLALAVQASMPEKEPSVLRKVLLEDEVLAAMVSVIGTATTHLSPELAAQSVTHIVPLFLDGNVSFLPENSFPSRFQPFQDGSSGQRRLIALLMAFVCSLPRNVEIPQLNQLMRELLELSCCHSCPFSSTAAAKCFAGLLNKHPAGQQLDEFLQLAVDKVEAGLGSGPCRSQAFTLLLWVTKALVLRYHPLSSCLTARLMGLLSDPELGPAAADGFSLLMSDCTDVLTRAGHAEVRIMFRQRFFTDNVPALVQGFHAAPQDVKPNYLKGLSHVLNRLPKPVLLPELPTLLSLLLEALSCPDCVVQLSTLSCLQPLLLEAPQVMSLHVDTLVTKFLNLSSSPSMAVRIAALQCMHALTRLPTPVLLPYKPQVIRALAKPLDDKKRLVRKEAVSARGEWFLLGSPGS [MMS19]”, the thermal stability score in series [1] (setting [5]) was -0.678; in series [1] (cell cycle stage: mitosis), 0.247. Also, the “solubility in G1/S (log2)” value in series [2] is -0.14. Also, in series [3], the “solubility change mitosis (log2)” value was -0.141. For the same substance, the melting temperature was 50.3 °C in series [4] (cell cycle stage: G1/S) and 49.8 °C in series [4] (cell cycle stage: mitosis).

Take “MAAAAELSLLEKSLGLSKGNKYSAQGERQIPVLQTNNGPSLTGLTTIAAHLVKQANKEYLLGSTAEEKAIVQQWLEYRVTQVDGHSSKNDIHTLLKDLNSYLEDKVYLTGYNFTLADILLYYGLHRFIVDLTVQEKEKYLNVSRWFCHIQHYPGIRQHLSSVVFIKNRLYTNSH [EEF1E1]”: the thermal stability score in series [1] (setting [5]) was -0.612; in series [1] (cell cycle stage: mitosis) it was -0.172. For the same substance, the “solubility in G1/S (log2)” value in series [2] amounted to 0.394. Also, in series [3], the “solubility change mitosis (log2)” value worked out at 0.0967. The results for the melting temperature in series [4] (cell cycle stage: G1/S) and in series [4] (cell cycle stage: mitosis) were 48.6 °C and 49.7 °C, respectively.

As for “MAAAAGPGAALSPRPCDSDPATPGAQSPKDDNEDNSNDGTQPSKRRRMGSGDSSRSCETSSQDLGFSYYPAENLIEYKWPPDETGEYYMLQEQVSEYLGVTSFKRKYPDLERRDLSHKEKLYLRELNVITETQCTLGLTALRSDEVIDLMIKEYPAKHAEYSVILQEKERQRITDHYKEYSQMQQQNTQKVEASKVPEYIKKAAKKAAEFNSNLNRERMEERRAYFDLQTHVIQVPQGKYKVLPTERTKVSSYPVALIPGQFQEYYKRYSPDELRYLPLNTALYEPPLDPELPALDSDGDSDDGEDGRGDEKRKNKGTSDSSSGNVSEGESPPDSQEDSFQGRQKSKDKAATPRKDGPKRSVLSKSVPGYKPKVIPNAICGICLKGKESNKKGKAESLIHCSQCENSGHPSCLDMTMELVSMIKTYPWQCMECKTCIICGQPHHEEEMMFCDMCDRGYHTFCVGLGAIPSGRWICDCCQRAPPTPRKVGRRGKNSKEG [PHF10]”, the values for the thermal stability score in series [1] (setting [5]) and in series [1] (cell cycle stage: mitosis) were 1.13 and 2.91, respectively. The “solubility in G1/S (log2)” value in series [2] worked out at 0.128. The “solubility change mitosis (log2)” value in series [3] worked out at 0.132. Further, the melting temperature in series [4] (cell cycle stage: G1/S) is 49.5 °C; in series [4] (cell cycle stage: mitosis), 49.4 °C.

As for “MAAAAKPNNLSLVVHGPGDLRLENYPIPEPGPNEVLLRMHSVGICGSDVHYWEYGRIGNFIVKKPMVLGHEASGTVEKVGSSVKHLKPGDRVAIEPGAPRENDEFCKMGRYNLSPSIFFCATPPDDGNLCRFYKHNAAFCYKLPDNVTFEEGALIEPLSVGIHACRRGGVTLGHKVLVCGAGPIGMVTLLVAKAMGAAQVVVTDLSATRLSKAKEIGADLVLQISKESPQEIARKVEGQLGCKPEVTIECTGAEASIQAGIYATRSGGNLVLVGLGSEMTTVPLLHAAIREVDIKGVFRYCNTWPVAISMLASKSVNVKPLVTHRFPLEKALEAFETFKKGLGLKIMLKCDPSDQNP [SORD]”, the thermal stability score is -2.25 in series [1] (setting [5]) and -1.12 in series [1] (cell cycle stage: mitosis). For the same substance, in series [2], the “solubility in G1/S (log2)” value amounted to 0.184. Besides, in series [3], the “solubility change mitosis (log2)” value is -0.109. Also, the melting temperature in series [4] (cell cycle stage: G1/S) came out at 58.1 °C; in series [4] (cell cycle stage: mitosis), 57 °C.

In the case of “MAAAALGSSSGSASPAVAELCQNTPETFLEASKLLLTYADNILRNPNDEKYRSIRIGNTAFSTRLLPVRGAVECLFEMGFEEGETHLIFPKKASVEQLQKIRDLIAIERSSRLDGSNKSHKVKSSQQPAASTQLPTTPSSNPSGLNQHTRNRQGQSSDPPSASTVAADSAILEVLQSNIQHVLVYENPALQEKALACIPVQELKRKSQEKLSRARKLDKGINISDEDFLLLELLHWFKEEFFHWVNNVLCSKCGGQTRSRDRSLLPSDDELKWGAKEVEDHYCDACQFSNRFPRYNNPEKLLETRCGRCGEWANCFTLCCRAVGFEARYVWDYTDHVWTEVYSPSQQRWLHCDACEDVCDKPLLYEIGWGKKLSYVIAFSKDEVVDVTWRYSCKHEEVIARRTKVKEALLRDTINGLNKQRQLFLSENRRKELLQRIIVELVEFISPKTPKPGELGGRISGSVAWRVARGEMGLQRKETLFIPCENEKISKQLHLCYNIVKDRYVRVSNNNQTISGWENGVWKMESIFRKVETDWHMVYLARKEGSSFAYISWKFECGSVGLKVDSISIRTSSQTFQTGTVEWKLRSDTAQVELTGDNSLHSYADFSGATEVILEAELSRGDGDVAWQHTQLFRQSLNDHEENCLEIIIKFSDL [NGLY1]”, the thermal stability score in series [1] (setting [5]) is -0.157; in series [1] (cell cycle stage: mitosis), -0.401. For the same substance, in series [2], the “solubility in G1/S (log2)” value is -0.124. Also, the “solubility change mitosis (log2)” value in series [3] is -0.0564. In addition, the melting temperature in series [4] (cell cycle stage: G1/S) worked out at 57.5 °C; in series [4] (cell cycle stage: mitosis) it was 50.3 °C.
